According to patent US20230167182A1 (BIOSION, published 2023):
Residue numbers refer to the chain shown, from its start.

T1: human IL6R expressed on cell surface (human, UniProt P08887 20-468)
T1 construct: whole, on cells; also called cell surface human IL6R; U266 cells expressing human IL6R
T1 sequence (looked up): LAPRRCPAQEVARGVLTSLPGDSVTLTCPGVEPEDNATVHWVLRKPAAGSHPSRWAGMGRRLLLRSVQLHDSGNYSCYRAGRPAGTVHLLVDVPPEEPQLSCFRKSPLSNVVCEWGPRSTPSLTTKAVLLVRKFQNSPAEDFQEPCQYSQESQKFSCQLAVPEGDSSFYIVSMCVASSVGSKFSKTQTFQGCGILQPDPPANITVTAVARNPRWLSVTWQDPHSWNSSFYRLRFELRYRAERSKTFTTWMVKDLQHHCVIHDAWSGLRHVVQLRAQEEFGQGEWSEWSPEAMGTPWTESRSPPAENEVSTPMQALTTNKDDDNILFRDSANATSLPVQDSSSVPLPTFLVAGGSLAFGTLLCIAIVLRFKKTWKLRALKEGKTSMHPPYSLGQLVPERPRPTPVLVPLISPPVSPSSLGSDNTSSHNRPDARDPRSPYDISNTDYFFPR

B1: Tocilizumab (antibody, human IgG1, kappa, V domains shown)
VH: QVQLQESGPGLVRPSQTLSLTCTVSGYSITSDHAWSWVRQPPGRGLEWIGYISYSGITTYNPSLKSRVTMLRDTSKNQFSLRLSSVTAADTAVYYCARSLARTTAMDYWGQGSLVTVSS
VL: DIQMTQSPSSLSASVGDRVTITCRASQDISSYLNWYQQKPGKAPKLLIYYTSRLHSGVPSRFSGSGSGTDFTFTISSLQPEDIATYYCQQGNTLPYTFGQGTKVEIKR
notes: In house made; also called benchmark; Actemra
B2: mouse anti-IL6R monoclonal antibody 1A3 (antibody, V domains shown)
VH: QVQLQQPGAELVKPGASVKLSCKASGYTFTSYWMHWVKQRPAQGLEWIGEINPSNGRTNFNEKFKTKATLTVDKSSNTAYMQLSSLTSEDSAVYSCLRLNTHYVFDYWGQGTTLTVSS
VL: EIVLTQSPTTMAASPGEKITITCSASSSISSNYLHWYQQKPGFSPKLLISRTSNLASGVPTRFSGSGSGTSYSLTIGTMEAGDVATYYCQQGSGIPFTFGSGTKLEIK
notes: Mouse hybridoma mAb purified on Protein A
B3: mouse anti-IL6R monoclonal antibody 1B5 (antibody, V domains shown)
VH: B2 VH with A42G, F60Y, K63N, T66S, N77S, S95Y, L97A
VL: B2 VL with T10I, M11L, I21F, A25V, S50Y, T61A, G82E
notes: Mouse hybridoma mAb
B4: mouse anti-IL6R monoclonal antibody 1F7 (antibody, V domains shown)
VH: QVQLQQPGAELVKPGASVKLSCKASDYTFTSYWMHWVKQRPGQGLEWIGEINPSNGRTNYNEKFKNKATLTVDKSSSTAYVQLYSLTSEDSAVYYCARLSIHYVFDYWGQGTTLTVSS
VL: B2 VL with I2L, I21F, R51G, T61P, G77V, G82E
notes: Mouse hybridoma mAb
B5: mouse anti-IL6R monoclonal antibody 1D4 (antibody, V domains shown)
VH: QVQLQQPGAELVKPGASVKLSCKASGYTFTSYWMHWVKVRPGQGLEWIGEINPTNGRTNYNEDFKSKATLTVNSSSSTAYMQLSSLTSEDSAVYYCARLNTHYVFDYWGQGTTLTVSS
VL: B2 VL with T10I, M11L, I21F, A25V, S50Y, T61A, G82E
notes: Mouse hybridoma mAb
B6: Chimeric 1H7 (antibody, human IgG1, kappa, V domains shown)
VH: B5 VH with A9T, S31N, V39Q, E46D, D63N, N73D, S74K, Y107S, V116L
VL: EIVLTQSPTTLAASPGEKITFTCSVSSSISSNYLHWYQQKPGFSPKLLISRTSTLASGVPARFSGSGSGTSYSLTIGTMEAEDVATYYCQQGSGIPFTFGSGTKLELKR
notes: Mouse variable regions on human IgG1 / human kappa constant regions; also called chimeric antibody 1H7
B7: humanized antibody hu1H7-V5 (antibody, human IgG1, kappa, V domains shown)
VH: QVQLVQSGAEVKKPGASVKVSCKASGYTFTNYWMHWVRQAPGQGLEWIGEINPTNGRTNYNENFKSRVTLTVDTSTSTVYMELSSLRSEDTAVYYCARLNTHYVFDSWGQGTLVTVSS
VL: EIVLTQSPGTLSLSPGERATLSCSVSSSISSNYLHWYQQKPGLSPRLLISRTSTLASGIPARFSGSGSGTEYTLTISRMQSEDFAVYYCQQGSGIPFTFGQGTKLEIKR
notes: Human IgG1 / kappa
B8: mouse anti-IL6R monoclonal antibody 1H7 (antibody, V domains shown)
VH: B5 VH with A9T, S31N, V39Q, E46D, D63N, N73D, S74K, Y107S, V116L
VL: B2 VL with M11L, I21F, A25V, N54T, T61A, G82E, I107L
notes: Mouse hybridoma mAb

What follows are binders tested against T2, human IL6R-Fc protein (human, biotin-labeled in the ELISAs (sites not given)) (assay: ligand blocking ELISA: antibody pre-incubated with biotin-labeled human IL6R-Fc, added to plate-coated human IL6 (blocked ligand: human IL6)).
T2 construct: In house made; also called biotin-labeled human IL6R-Fc protein
Experimental: (§1) The next day, anti-IL6R antibodies or controls were diluted with biotin labeled human IL6R-Fc protein (prepared in house, SEQ ID NO: 43, 39.5 ng/ml in 2.5% w/v non-fatty milk in PBST), starting at 100 nM with a 4-fold serial dilution, and incubated at room temperature for 40 minutes. […] Plates were washed for 4 times using wash buffer, and added and incubated with 100 μl/well of streptavidin conjugated HRP (1:10000 dilution in PBST buffer, Jackson ImmunoResearch Laboratories, Inc., Cat #016-030-084) for 40 minutes at 37° C. Plates were washed again using wash buffer. Finally, TMB was added and the reaction was stopped using 1M H₂SO₄. The absorbance was read on a microplate reader using dual wavelength mode with 450 nm for TMB and 630 nm as the reference wavelength, and then the OD (450-630) values were plotted against antibody concentration. Data was analyzed using Graphpad Prism software and IC₅₀ values were reported.
With B1 the IC50 was 2.33 nM.
B2 showed an IC50 of 0.807 nM.
Work on B3 yielded an IC50 of 0.697 nM.

Target: T2, human IL6R-Fc protein
Assay: as above
Remark: another data set of the same source
Experimental: as §1
With B1 the IC50 was 2.3 nM.
Binder B4 has an IC50 of 0.617 nM.
For B5, the IC50 was 0.957 nM.

Each binder was assayed against T1, human IL6R expressed on cell surface (assay: cell-based binding FACS on U266 cells).
Experimental: The binding activities of the mouse anti-IL6R antibodies to IL6R expressed on cell surface were tested by flow cytometry (FACS). Briefly, human myeloma cells U266 (ATCC® TIB-196™) were harvested from cell culture flasks, washed twice and resuspended in phosphate buffered saline (PBS) containing 2% v/v Fetal Bovine Serum (FACS buffer). 2×10⁵ U266 cells per well were incubated in 96 well-plates with 100 μl of the anti-IL6R antibodies or controls at various concentrations (starting at 40 nM with a 3-fold serial dilution in FACS buffer) for 40 minutes on ice. Cells were washed twice with FACS buffer, and added with 100 μL/well R-Phycoerythrin AffiniPure F(ab′)₂ Fragment Goat Anti-Mouse IgG (H+L) (1:1000 dilution in FACS buffer, Jackson ImmunoResearch Laboratories, Inc., Cat #115-116-146). Following an incubation of 40 minutes at 4° C. in dark, cells were washed three times and resuspended in FACS buffer. Fluorescence was measured using a Becton Dickinson FACS Canto II-HTS equipment. Data was analyzed using Graphpad Prism software and EC₅₀ values were reported.
For the cell-based binding FACS, R-Phycoerythrin AffiniPure Goat Anti-human IgG Fcγ fragment specific (Jackson ImmunoResearch Laboratories, Inc., Cat #109-115-098) was used instead of R-Phycoerythrin AffiniPure F(ab′)₂ Fragment Goat Anti-Mouse IgG (H+L), 1:1000 dilution in FACS buffer, 100 μl/well.
With B6 the EC50 was 0.298 nM.
For B1, the EC50 was 1.76 nM.
With B7 the EC50 was 0.417 nM.
B8 was tested, and the EC50 was 0.301 nM.

The binders below were run against T2, human IL6R-Fc protein (assay: capture ELISA: antibody captured on anti-IgG F(ab')2 coated plate, then biotin-labeled human IL6R-Fc, streptavidin-HRP).
Experimental: (§2) For the capture ELISA, 96-well micro plates were coated with 2 μg/ml AffiniPure Goat Anti-Mouse IgG, F(ab′)₂ fragment specific (Jackson ImmunoResearch Laboratories, Inc., Cat #115-005-072) in PBS, 100 μl/well, and incubated for 2 hours at 37° C. Plates were washed once with wash buffer (PBS+0.05% v/v Tween-20, PBST) and then blocked with 200 μl/well blocking buffer (5% w/v non-fatty milk in PBST) overnight at 4° C. […] Plates containing captured anti-IL6R antibodies were incubated with biotin-labeled human IL6R-Fc protein (prepared in house, SEQ ID NO: 43, 39.5 ng/ml in 2.5% w/v non-fatty milk in PBST, 100 μl/well) for 40 minutes at 37° C., washed 4 times, and incubated with streptavidin conjugated HRP (1:10000 dilution in PBST, Jackson ImmunoResearch Laboratories, Inc., Cat #016-030-084, 100 μl/well) for 40 minutes at 37° C. After a final wash, plates were incubated with 100 μl/well ELISA substrate TMB (InnoReagents, Cat #TMB-S-002). The reaction was stopped 3-10 minutes later at room temperature with 50 μl/well 1M H₂SO₄, and the absorbance of each well was read on a microplate reader using dual wavelength mode at 450 nm for TMB and 630 nm as the reference wavelength. Then the OD (450-630) values were plotted against antibody concentration. Data was analyzed using Graphpad Prism software and EC₅₀ values were reported.
For the capture ELISA, 96-well micro plates were coated with 2 μg/ml goat anti-human IgG (AffiniPure Goat Anti-Human IgG, F(ab′)₂ fragment specific, Jackson ImmunoResearch Laboratories, Inc., Cat #109-005-097) instead of goat anti-mouse IgG F(ab′)₂ fragment, 100 μl/well.
Target sequence in this assay (chain, as listed by the source limits assumed): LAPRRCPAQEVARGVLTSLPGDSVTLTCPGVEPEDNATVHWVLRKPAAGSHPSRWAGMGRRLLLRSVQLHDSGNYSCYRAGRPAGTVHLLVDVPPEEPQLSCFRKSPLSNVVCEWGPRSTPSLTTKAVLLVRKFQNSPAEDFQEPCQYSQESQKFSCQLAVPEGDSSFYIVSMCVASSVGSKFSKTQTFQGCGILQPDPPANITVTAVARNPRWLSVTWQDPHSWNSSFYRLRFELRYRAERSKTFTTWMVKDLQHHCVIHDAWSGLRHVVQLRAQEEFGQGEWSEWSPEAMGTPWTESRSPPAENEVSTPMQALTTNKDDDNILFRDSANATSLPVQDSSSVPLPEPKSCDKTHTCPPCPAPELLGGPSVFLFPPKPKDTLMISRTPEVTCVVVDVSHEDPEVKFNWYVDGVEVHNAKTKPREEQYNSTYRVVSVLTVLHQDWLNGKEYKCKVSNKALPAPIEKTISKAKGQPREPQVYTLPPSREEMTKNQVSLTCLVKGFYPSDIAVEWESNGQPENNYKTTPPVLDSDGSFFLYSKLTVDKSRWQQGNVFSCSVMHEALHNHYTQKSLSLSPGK
B6 was tested, and the EC50 was 0.201 nM.
For B1, the EC50 was 0.504 nM.
B7 showed an EC50 of 0.31 nM.
With B8 the EC50 was 0.164 nM.

Target: T2, human IL6R-Fc protein
Assay: as above
Remark: another data set of the same source
Experimental: as §2
For the capture ELISA, AffiniPure Goat Anti-Human IgG, F(ab′)₂ fragment specific (Jackson Immuno Research, Cat #109-005-097) was used instead of AffiniPure Goat Anti-Mouse IgG, F(ab′)₂ fragment specific, 100 μl/well.
Target sequence in this assay (chain, as listed by the source limits assumed): as above
B6 showed an EC50 of 0.078 nM.
Binder B1 has an EC50 of 0.191 nM.
B8 gave an EC50 of 0.0553 nM.
B3 showed an EC50 of 0.0627 nM.
